Source: patent US20130109581A1, “POSITIVELY CHARGED SPECIES AS BINDING REAGENTS IN THE SEPARATION OF PROTEIN AGGREGATES FROM MONOMERS” (priority 2009, published 2013)
“And” between values parts separate entries of the source, which are not always exact repeats. Identical values can stand only once.

Columns and labels:
ADDL (Abeta42 aggregate) = ADDL (Abeta42 aggregate) (UniProt P05067); test: MPA, serial dilutions in CSF, LoD = 2x over background
ASPD (Abeta42 aggregate) = ASPD (Abeta42 aggregate) (UniProt P05067); test: as above
Abeta 1-42 monomer [1] = target: Abeta 1-42 monomer (UniProt P05067); test: as above
Abeta 1-42 globulomer [2] = target: Abeta 1-42 globulomer (UniProt P05067); test: as above
Abeta42 fibrils = Abeta42 fibrils (UniProt P05067); test: as above
Abeta 1-42 monomer [3] = target: Abeta 1-42 monomer (UniProt P05067); test: MPA, unspiked CSF background, ZW3-12 wash
Abeta 1-42 globulomer [4] = target: Abeta 1-42 globulomer (UniProt P05067); test: MPA, pulldown in CSF, no added detergent wash
Abeta 1-42 globulomer [5] = target: Abeta 1-42 globulomer (UniProt P05067); test: MPA, CSF + 0.5 ng/mL globulomer, ASB-14 wash
Abeta 1-42 globulomer [6] = target: Abeta 1-42 globulomer (UniProt P05067); test: MPA, pulldown in CSF, 1% TW20 wash
Abeta 1-42 globulomer [7] = target: Abeta 1-42 globulomer (UniProt P05067); test: MPA, CSF + 0.5 ng/mL globulomer, Brij 35 wash
Abeta 1-42 globulomer [8] = target: Abeta 1-42 globulomer (UniProt P05067); test: MPA, globulomer Abeta 42 RLU over average Abeta 40 RLU, ZW3-12 wash
Abeta 1-42 globulomer [9] = target: Abeta 1-42 globulomer (UniProt P05067); test: MPA, globulomer Abeta 42 RLU over average Abeta 40 RLU, ASB-C8phn wash
Abeta 1-42 globulomer [10] = target: Abeta 1-42 globulomer (UniProt P05067); test: MPA, globulomer Abeta 42 RLU over average Abeta 40 RLU, ASB-16 wash
Abeta 1-42 monomer [11] = target: Abeta 1-42 monomer (UniProt P05067); test: MPA, unspiked CSF background, Empigen wash
Abeta 1-42 monomer [12] = target: Abeta 1-42 monomer (UniProt P05067); test: MPA, unspiked CSF background, ZW3-14 wash
Abeta 1-42 globulomer [13] = target: Abeta 1-42 globulomer (UniProt P05067); test: MPA bead capture, CSF + 1 ng/mL globulomer, Abeta immunoassay
Abeta 1-42 monomer [14] = target: Abeta 1-42 monomer (UniProt P05067); test: MPA, unspiked CSF background, ASB-C8phn wash
Abeta 1-42 monomer [15] = target: Abeta 1-42 monomer (UniProt P05067); test: MPA, unspiked CSF background, Pluronic F-127 wash
Abeta 1-42 globulomer [16] = target: Abeta 1-42 globulomer (UniProt P05067); test: MPA, 0.5 over 0 ng/mL globulomer in CSF, ZW3-16 wash
Abeta 1-42 globulomer [17] = target: Abeta 1-42 globulomer (UniProt P05067); test: MPA, CSF + 0.5 ng/mL globulomer, ZW3-08 wash
[18] = target: PrPSc, prion aggregates of prion infected hamster (Syrian hamster) (UniProt P04273); test: cell-based or functional assay
Sequence of PrPSc, prion aggregates of prion infected hamster (Syrian hamster) (P04273 23-231 limits assumed): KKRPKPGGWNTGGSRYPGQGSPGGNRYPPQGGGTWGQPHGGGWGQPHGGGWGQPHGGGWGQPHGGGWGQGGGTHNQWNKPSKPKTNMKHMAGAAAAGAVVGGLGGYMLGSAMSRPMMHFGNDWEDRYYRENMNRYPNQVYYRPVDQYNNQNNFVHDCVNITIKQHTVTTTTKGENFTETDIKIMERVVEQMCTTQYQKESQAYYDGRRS

“PSR1 (peptoid, directly conjugated to Dynal M270 beads)” was tested, and the LoD (ADDL (Abeta42 aggregate)) was 200 pg/mL, the LoD (amol) (ADDL (Abeta42 aggregate)) was 20 amol and the LoD (ASPD (Abeta42 aggregate)) was 200 pg/mL. For the same substance, the LoD (amol) (ASPD (Abeta42 aggregate)) was 20 amol, the LoD (Abeta 1-42 monomer [1]) was 1000 pg/mL and the LoD (amol) (Abeta 1-42 monomer [1]) was 22000 amol. For the same substance, the LoD (Abeta 1-42 globulomer [2]) was 75 pg/mL, the LoD (amol) (Abeta 1-42 globulomer [2]) was 140 amol and the LoD (Abeta42 fibrils) was 50 pg/mL. For the same substance, the LoD (amol) (Abeta42 fibrils) was < 2 amol, the Abeta 42 RLU, 0 ng/mL Average (Abeta 1-42 monomer [3]) was 90.7 RLU and the LoD of globulomer, RLU (S/N = 2) (Abeta 1-42 globulomer [4]) was 456 RLU. The LoD of globulomer, pg/mL (Cal) (Abeta 1-42 globulomer [4]) was 6.16 pg/mL, the S/N at 25.3 pg/mL (Abeta 1-42 globulomer [4]) was 5.7 and the Abeta 42 RLU, 0.5 ng/mL Average (Abeta 1-42 globulomer [5]) was 779 RLU. It also gave a LoD of globulomer, RLU (S/N = 2) (Abeta 1-42 globulomer [6]) of 211 RLU, a LoD of globulomer, pg/mL (Cal) (Abeta 1-42 globulomer [6]) of 2.52 pg/mL and a S/N at 25.3 pg/mL (Abeta 1-42 globulomer [6]) of 11. It also gave an Abeta 42 RLU, 0.5 ng/mL Average (Abeta 1-42 globulomer [7]) of 741 RLU, a S/N Abeta 42 globulomer-spiked/Abeta 40 (Abeta 1-42 globulomer [8]) of 1.4 and a S/N Abeta 42 globulomer-spiked/Abeta 40 (Abeta 1-42 globulomer [9]) of 1.4. For the same substance, the S/N Abeta 42 globulomer-spiked/Abeta 40 (Abeta 1-42 globulomer [10]) was 2.8, the Abeta 42 RLU, 0 ng/mL Average (Abeta 1-42 monomer [11]) was 76.7 RLU and the Abeta 42 RLU, 0 ng/mL Average (Abeta 1-42 monomer [12]) was 110 RLU. The average RLU (42) (Abeta 1-42 globulomer [13]) was 970 RLU, the Abeta 42 RLU, 0 ng/mL Average (Abeta 1-42 monomer [14]) was 101 RLU and the Abeta 42 RLU, 0 ng/mL Average (Abeta 1-42 monomer [15]) was 117 RLU. The S/N Abeta 42 globulomer-spiked/unspiked (Abeta 1-42 globulomer [16]) was 10.9, the Abeta 42 RLU, 0.5 ng/mL Average (Abeta 1-42 globulomer [17]) was 669 RLU and the Attack rate (Clinical TSE/total inoculated), Pool 2 [18] was 100%. The Attack rate (Clinical TSE/total inoculated), Pool 3 (pre-symptomatic) [18] was 50%, the Attack rate (Clinical TSE/total inoculated), Pool 4 [18] was 100% and the Mean incubation period (days), Pool 1 [18] was 94 dpi. For the same substance, the Mean incubation period (days), Pool 2 [18] was 74 dpi, the Mean incubation period (days), Pool 4 [18] was 76 dpi and the incubation period (days), Pool 3 (pre-symptomatic) [18] was 56 days and 85 days.
